From patent publication US6770739B1, “Enhancers of CFTR chloride channel function” (Case Western Reserve University, priority 1999, dated 2004)

Experiments:
[1] = molecular target: T1, wt-CFTR channel (Homo sapiens, UniProt P13569); assay: Single channel recording of wt-CFTR reconstituted in planar lipid bilayer; assay type: biochemical
T1 construct: made in house; host or cells: 293-EBNA HEK cells (Invitrogen), transient transfection with pCEP4(wt); microsomal membrane vesicles
Method: (§1) To test whether the NEG2 region is responsible for both stimulatory and inhibitory interactions between the R domain and other domains, synthetic NEG2, a 22 amino acid peptide, was added to the cis-intracellular side of single CFTR channels captured in the planar lipid bilayer (FIG. 3). […] After peptide addition, there are periods of intense stimulation that last 4 to 8 minutes. These stimulatory periods are followed by either a return to the basal level of activity before peptide addition, or by an almost complete inhibition of the channel, where only a flickery 3 pS conductance is observed.
In order to understand the mechanism responsible for the increase in open probability, the gating kinetics of wt-CFTR without peptide and during stimulation by synthetic NEG2 were analyzed. […] Thus, the increase in the open probability is not due to a change in the closing rate of the channel. However, the closed time distribution for the stimulated channel is clearly shifted to the left compared to the control channel (FIG. 4B). There are three components to the closed state, a fast (τc1), an intermediate (τc2) and a long (τc3) closed component. The fast closed component is probably due to closings within a burst (Carson et al., 1995). Therefore, to identify better the closed times between bursts, a delimiter of τc=40 ms was set at the nadir between the fast and intermediate closed times (illustrated by the arrow in FIG. 4B) to generate the closed-burst duration histograms. […] Thus, the interaction of NEG2 with CFTR increased the intermediate-opening rate of the channel. This increase in opening rate is similar to that observed when the phosphorylated R domain protein (amino acids 645-834) was added to CFTR-ΔR/S660A in excised, inside-out patches (Winter and Welsh, 1997). Additionally, modification of C832, which resides within NEG2, by N-ethylrnaleimide (NEM) results in irreversible stimulation of PKA-phosphorylated CFTR chloride channel activity (Cotten and Welsh, 1997), further emphasizing the importance of NEG2 in CFTR regulation.
A human embryonic kidney cell line (293-EBNA HEK; Invitrogen) was used for transfection and expression of the CFTR proteins (Ma et al., 1997, Ma et al., 1996, Xie et al., 1995). The HEK-293 cell line contains a pCMV-EBNA vector, which constitutively expresses the Epstein-Barr virus nuclear antigen-1 (EBNA-1) gene product and increases the transfection efficiency of Epstein-Barr virus-based vectors. The cells were maintained in Dulbecco's Modified Eagle Medium with 10% FBS and 1% L-glutamine. Geneticin (G418, 250 (g/ml) was added to the cell culture medium to maintain selection of the cells containing the pCMV-EBNA vector. Lipofectamine reagent (Life Technologies, Inc) in Optimem media (serum-free) was used to transfect the HEK-293 cells with pCEP4(wt), pCEP4(ΔNEG1), or pCEP4(ΔNEG2). After 5 hours, serum was added to the media (10% final serum concentration). Twenty-four hours after transfection, the transfection media was replaced with fresh media. The cells were harvested two days after transfection and microsomal membrane vesicles were prepared for single channel measurements in the lipid bilayer reconstitution system.
HEK-293 cells transfected with pCEP4(CFTR) were harvested and homogenized using a combination of hypotonic lysis and Dounce homogenization in the presence of protease inhibitors (Ma et al., 1997, Ma et al., 1996, Xie et al., 1995). Microsomes were collected by centrifugation of postnuclear supernatant (4500×g, 15 min) at 100,000×g for 20 min and resuspended in a buffer containing 250 mM sucrose, 10 mM HEPES, pH 7.2. The membrane vesicles were stored at −75° C. until use.
The 22 amino acid peptide corresponding to NEG2 was custom made by Quality Controlled Biochemicals, Inc. The peptide was resuspended in water to a concentration of 1 mg/ml and pH was adjusted to a physiological range (7.2-7.4) using KOH and HCl. […]

[2] = molecular target: T2, ΔNEG2-CFTR channel (Homo sapiens, UniProt P13569, DEL817-838); assay: Single channel recording of ΔNEG2-CFTR reconstituted in planar lipid bilayer; assay type: biochemical; conditions: 0.44 μM NEG2 peptide, −80 mV, 2 mM ATP, no PKA
T2 construct: made in house; host or cells: 293-EBNA HEK cells (Invitrogen), transient transfection with pCEP4(ΔNEG2); microsomal membrane vesicles
Description: Single channel measurements indicate that the ΔNEG1-CFTR channel is similar to wt-CFTR in its PKA dependence. No chloride channels are observed in the absence of PKA (FIG. 2A) and the open probability in the presence of PKA and ATP is similar to wt-CFTR. In contrast, the ΔNEG2-CFTR channel opens without PKA (FIG. 2A). The constitutive activity of the ΔNEG2-CFTR channel is unlikely to be due to the endogenous phosphorylation of the ΔNEG2-CFTR protein, since protein phosphatase 2A, which decreases activity of the wt-CFTR opened by PKA and ATP (Ma et al., 1997), has no effect on the ΔNEG2-CFTR channel (n=4).
as §1, with “observed. […]” for “observed.”

[3] = peptide-stimulated, 4.4 μM NEG2 peptide, −80 mV

T1 sequence (P13569 whole entry): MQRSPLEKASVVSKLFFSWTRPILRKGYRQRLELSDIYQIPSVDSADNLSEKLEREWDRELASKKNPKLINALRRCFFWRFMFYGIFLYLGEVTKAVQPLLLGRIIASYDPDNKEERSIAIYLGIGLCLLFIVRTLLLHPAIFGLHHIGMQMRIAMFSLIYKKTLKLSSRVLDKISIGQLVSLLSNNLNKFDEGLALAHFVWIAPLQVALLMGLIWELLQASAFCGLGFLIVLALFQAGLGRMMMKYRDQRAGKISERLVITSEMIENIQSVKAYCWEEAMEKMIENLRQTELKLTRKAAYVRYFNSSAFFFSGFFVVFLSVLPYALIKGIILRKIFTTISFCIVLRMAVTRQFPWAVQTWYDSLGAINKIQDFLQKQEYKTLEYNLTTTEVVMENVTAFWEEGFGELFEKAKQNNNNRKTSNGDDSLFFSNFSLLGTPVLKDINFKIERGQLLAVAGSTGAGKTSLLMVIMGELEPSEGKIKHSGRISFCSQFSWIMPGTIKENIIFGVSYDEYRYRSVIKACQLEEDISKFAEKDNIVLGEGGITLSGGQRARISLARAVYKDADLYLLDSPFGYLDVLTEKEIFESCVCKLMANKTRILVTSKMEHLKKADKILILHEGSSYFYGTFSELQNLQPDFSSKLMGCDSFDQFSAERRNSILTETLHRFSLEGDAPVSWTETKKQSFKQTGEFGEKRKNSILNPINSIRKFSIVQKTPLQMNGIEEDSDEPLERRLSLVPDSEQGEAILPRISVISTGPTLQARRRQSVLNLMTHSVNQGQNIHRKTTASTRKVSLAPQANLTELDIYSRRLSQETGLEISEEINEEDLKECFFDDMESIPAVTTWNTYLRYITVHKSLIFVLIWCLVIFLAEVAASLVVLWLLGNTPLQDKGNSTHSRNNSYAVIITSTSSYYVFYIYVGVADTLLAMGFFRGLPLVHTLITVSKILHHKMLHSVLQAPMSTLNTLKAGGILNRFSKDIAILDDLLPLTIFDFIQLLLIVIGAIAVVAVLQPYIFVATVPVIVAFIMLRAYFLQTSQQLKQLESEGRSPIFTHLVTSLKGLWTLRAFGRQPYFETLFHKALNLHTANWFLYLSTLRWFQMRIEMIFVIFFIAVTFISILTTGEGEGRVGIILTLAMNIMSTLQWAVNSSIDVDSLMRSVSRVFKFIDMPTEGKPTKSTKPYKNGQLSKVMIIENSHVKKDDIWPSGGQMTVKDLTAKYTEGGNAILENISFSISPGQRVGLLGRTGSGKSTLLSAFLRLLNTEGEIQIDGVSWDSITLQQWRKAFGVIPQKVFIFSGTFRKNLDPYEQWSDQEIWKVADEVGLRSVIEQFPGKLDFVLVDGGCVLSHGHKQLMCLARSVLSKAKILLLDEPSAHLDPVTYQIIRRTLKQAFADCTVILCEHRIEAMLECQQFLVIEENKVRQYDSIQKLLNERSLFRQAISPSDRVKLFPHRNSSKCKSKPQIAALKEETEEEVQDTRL
T2 sequence (P13569 with tags, fused parts or gaps DEL817-838): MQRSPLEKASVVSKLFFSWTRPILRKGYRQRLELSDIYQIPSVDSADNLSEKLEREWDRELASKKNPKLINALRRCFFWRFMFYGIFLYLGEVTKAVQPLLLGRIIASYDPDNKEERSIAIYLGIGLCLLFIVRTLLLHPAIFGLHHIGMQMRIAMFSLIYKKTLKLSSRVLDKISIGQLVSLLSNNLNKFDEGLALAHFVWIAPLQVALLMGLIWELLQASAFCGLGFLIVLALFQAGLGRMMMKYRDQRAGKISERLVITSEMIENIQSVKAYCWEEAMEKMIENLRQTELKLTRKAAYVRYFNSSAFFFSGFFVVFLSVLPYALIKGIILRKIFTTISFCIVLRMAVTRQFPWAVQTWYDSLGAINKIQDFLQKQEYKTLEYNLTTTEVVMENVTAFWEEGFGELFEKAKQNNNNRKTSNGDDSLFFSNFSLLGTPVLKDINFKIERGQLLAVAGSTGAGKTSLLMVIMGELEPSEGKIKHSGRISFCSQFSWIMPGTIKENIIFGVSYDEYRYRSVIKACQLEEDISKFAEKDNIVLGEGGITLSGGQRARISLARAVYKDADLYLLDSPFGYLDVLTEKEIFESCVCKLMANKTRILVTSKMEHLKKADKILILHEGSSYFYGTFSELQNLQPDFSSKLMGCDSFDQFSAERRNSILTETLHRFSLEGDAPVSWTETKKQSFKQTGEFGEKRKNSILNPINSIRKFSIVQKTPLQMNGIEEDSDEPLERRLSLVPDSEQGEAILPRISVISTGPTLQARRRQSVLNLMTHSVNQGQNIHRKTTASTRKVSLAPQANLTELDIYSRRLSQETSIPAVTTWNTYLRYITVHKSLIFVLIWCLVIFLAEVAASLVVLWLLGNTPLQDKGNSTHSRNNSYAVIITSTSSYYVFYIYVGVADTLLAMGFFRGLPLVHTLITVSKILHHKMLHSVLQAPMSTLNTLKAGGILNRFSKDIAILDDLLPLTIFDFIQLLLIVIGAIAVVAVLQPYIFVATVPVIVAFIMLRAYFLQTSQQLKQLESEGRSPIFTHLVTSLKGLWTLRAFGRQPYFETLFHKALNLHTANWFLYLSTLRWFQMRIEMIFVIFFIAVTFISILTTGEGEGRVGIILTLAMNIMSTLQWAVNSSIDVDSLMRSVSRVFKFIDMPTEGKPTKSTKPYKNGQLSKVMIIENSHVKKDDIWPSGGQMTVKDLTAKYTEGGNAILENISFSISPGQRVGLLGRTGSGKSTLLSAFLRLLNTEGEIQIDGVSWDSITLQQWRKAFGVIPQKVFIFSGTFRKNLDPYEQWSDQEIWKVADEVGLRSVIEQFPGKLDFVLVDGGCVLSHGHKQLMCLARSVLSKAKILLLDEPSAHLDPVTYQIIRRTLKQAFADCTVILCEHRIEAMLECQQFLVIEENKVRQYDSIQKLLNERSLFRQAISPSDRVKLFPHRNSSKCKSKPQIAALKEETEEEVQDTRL

NEG2 peptide: Synthetic 22 amino acid peptide corresponding to NEG2, amino acids 817-838 of the CFTR R domain (GLEISEEINEEDLKECFFDDME; listed as Homo sapiens)
change of open probability during stimulation ([1]; peptide added to cis-intracellular side, 2 mM ATP, 50 units PKA/ml): more than doubles
P2, probability of the intermediate closed component [1, 3]: 0.957
P3, probability of the long closed component [1, 3]: 0.043
intermediate closed time τc2 ([1]; peptide-stimulated, 4.4 μM NEG2 peptide, −80 mV, closed-burst histogram, delimiter 40 ms): 105 ms
concentration at which stimulatory response was observed ([1]; stimulation in 6 of 7 experiments, cis-intracellular addition): ≥ 0.44 µM
concentration at which profound inhibition was observed ([1]; three channels, cis-intracellular addition): ≥ 4.4 µM
effect on ΔNEG2-CFTR channel activity [2]: stimulation is observed
